The record followed here is US20140087995A1 (published 2014).

Numbered stars: 1 amine (or outer) side, 2 acyl side, 3 side chain; on linkers, the order of the positions; unused ones are H or OH. Bridge positions count the residues as written; N and C are the ends. Side chains are listed from the residue outwards. Ends that are not written are not given here. * marks the point of attachment. C20 diacid = O=C(O)CCCCCCCCCCCCCCCCCCC(=O)*; γGlu = O=C(O)[C@H](CCC(=O)[*:2])N[*:1]; AEEA = NCCOCCOCC(=O)O

By IC50 is commonly meant the concentration that inhibits the measured activity by half. Lower therefore signals greater potency in that assay.

Sequences and labels used below:
T1: human amylin receptor (human, UniProt P30988 25-474; O60896 24-148, limits assumed)
T1 construct: whole, on cells; Used as cell membranes prepared from the Amylin 3(a)/CRE-luc BHK cells (Assay V); also called hAmylin-R; hAmylinR
T1 sequence (looked up) 1: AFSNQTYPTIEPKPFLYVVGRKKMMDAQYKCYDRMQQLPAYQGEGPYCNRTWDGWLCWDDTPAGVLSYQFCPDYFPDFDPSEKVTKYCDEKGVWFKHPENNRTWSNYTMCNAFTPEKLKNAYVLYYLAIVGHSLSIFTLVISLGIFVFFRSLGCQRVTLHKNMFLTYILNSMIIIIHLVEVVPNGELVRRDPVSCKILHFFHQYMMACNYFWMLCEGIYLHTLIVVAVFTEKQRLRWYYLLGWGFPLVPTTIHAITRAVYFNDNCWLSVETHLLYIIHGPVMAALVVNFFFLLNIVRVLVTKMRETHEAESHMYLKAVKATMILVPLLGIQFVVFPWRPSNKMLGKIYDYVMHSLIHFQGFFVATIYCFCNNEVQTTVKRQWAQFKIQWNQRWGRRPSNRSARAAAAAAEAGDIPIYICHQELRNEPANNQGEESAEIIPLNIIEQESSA
T1 sequence (looked up) 2: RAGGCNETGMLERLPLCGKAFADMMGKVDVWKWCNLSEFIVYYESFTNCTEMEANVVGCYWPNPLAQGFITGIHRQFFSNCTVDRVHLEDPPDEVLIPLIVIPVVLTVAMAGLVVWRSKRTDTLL

B1: N^ε1-[2-[2-[2-(19-carboxynonadecanoylamino)ethoxy]ethoxy]acetyl]-[Arg17,Pro21,Pro27]-h-amylin (peptide)
peptide: K([AEEA-C20 diacid])CNTATCATQRLANFLRHSSPNFGAIPSSTNVGSNTY-NH2
modifications: disulfide 2-7; N-terminus assumed
SMILES: CC[C@H](C)[C@H](NC(=O)[C@H](C)NC(=O)CNC(=O)[C@H](Cc1ccccc1)NC(=O)[C@H](CC(N)=O)NC(=O)[C@@H]1CCCN1C(=O)[C@H](CO)NC(=O)[C@H](CO)NC(=O)[C@H](Cc1c[nH]cn1)NC(=O)[C@H](CCCNC(=N)N)NC(=O)[C@H](CC(C)C)NC(=O)[C@H](Cc1ccccc1)NC(=O)[C@H](CC(N)=O)NC(=O)[C@H](C)NC(=O)[C@H](CC(C)C)NC(=O)[C@H](CCCNC(=N)N)NC(=O)[C@H](CCC(N)=O)NC(=O)[C@@H](NC(=O)[C@H](C)NC(=O)[C@@H]1CSSC[C@H](NC(=O)[C@@H](N)CCCCNC(=O)COCCOCCNC(=O)CCCCCCCCCCCCCCCCCCC(=O)O)C(=O)N[C@@H](CC(N)=O)C(=O)N[C@@H]([C@@H](C)O)C(=O)N[C@@H](C)C(=O)N[C@@H]([C@@H](C)O)C(=O)N1)[C@@H](C)O)C(=O)N1CCC[C@H]1C(=O)N[C@@H](CO)C(=O)N[C@@H](CO)C(=O)N[C@H](C(=O)N[C@@H](CC(N)=O)C(=O)N[C@H](C(=O)NCC(=O)N[C@@H](CO)C(=O)N[C@@H](CC(N)=O)C(=O)N[C@H](C(=O)N[C@@H](Cc1ccc(O)cc1)C(N)=O)[C@@H](C)O)C(C)C)[C@@H](C)O
notes: also called compound 43
B2: N^ε1-[2-[2-[2-[[(4S)-4-carboxy-4-(19-carboxynonadecanoylamino)butanoyl]amino]ethoxy]ethoxy]acetyl]-[Arg17,Pro21,Pro27]-h-amylin (peptide)
peptide: K([AEEA-γGlu-C20 diacid])CNTATCATQRLANFLRHSSPNFGAIPSSTNVGSNTY-NH2
modifications: disulfide 2-7; N-terminus assumed
SMILES: CC[C@H](C)[C@H](NC(=O)[C@H](C)NC(=O)CNC(=O)[C@H](Cc1ccccc1)NC(=O)[C@H](CC(N)=O)NC(=O)[C@@H]1CCCN1C(=O)[C@H](CO)NC(=O)[C@H](CO)NC(=O)[C@H](Cc1c[nH]cn1)NC(=O)[C@H](CCCNC(=N)N)NC(=O)[C@H](CC(C)C)NC(=O)[C@H](Cc1ccccc1)NC(=O)[C@H](CC(N)=O)NC(=O)[C@H](C)NC(=O)[C@H](CC(C)C)NC(=O)[C@H](CCCNC(=N)N)NC(=O)[C@H](CCC(N)=O)NC(=O)[C@@H](NC(=O)[C@H](C)NC(=O)[C@@H]1CSSC[C@H](NC(=O)[C@@H](N)CCCCNC(=O)COCCOCCNC(=O)CC[C@H](NC(=O)CCCCCCCCCCCCCCCCCCC(=O)O)C(=O)O)C(=O)N[C@@H](CC(N)=O)C(=O)N[C@@H]([C@@H](C)O)C(=O)N[C@@H](C)C(=O)N[C@@H]([C@@H](C)O)C(=O)N1)[C@@H](C)O)C(=O)N1CCC[C@H]1C(=O)N[C@@H](CO)C(=O)N[C@@H](CO)C(=O)N[C@H](C(=O)N[C@@H](CC(N)=O)C(=O)N[C@H](C(=O)NCC(=O)N[C@@H](CO)C(=O)N[C@@H](CC(N)=O)C(=O)N[C@H](C(=O)N[C@@H](Cc1ccc(O)cc1)C(N)=O)[C@@H](C)O)C(C)C)[C@@H](C)O
notes: also called compound 41
B3: N^ε1-[(4S)-4-carboxy-4-[[(4S)-4-carboxy-4-(19-carboxynonadecanoylamino)butanoyl]amino]butanoyl]-[Glu14,Arg17,Pro21,Pro27,Pro34,Glu35]-h-amylin (peptide)
peptide: K([γGlu-γGlu-C20 diacid])CNTATCATQRLAEFLRHSSPNFGAIPSSTNVGPETY-NH2
modifications: disulfide 2-7; N-terminus assumed
SMILES: CC[C@H](C)[C@H](NC(=O)[C@H](C)NC(=O)CNC(=O)[C@H](Cc1ccccc1)NC(=O)[C@H](CC(N)=O)NC(=O)[C@@H]1CCCN1C(=O)[C@H](CO)NC(=O)[C@H](CO)NC(=O)[C@H](Cc1c[nH]cn1)NC(=O)[C@H](CCCNC(=N)N)NC(=O)[C@H](CC(C)C)NC(=O)[C@H](Cc1ccccc1)NC(=O)[C@H](CCC(=O)O)NC(=O)[C@H](C)NC(=O)[C@H](CC(C)C)NC(=O)[C@H](CCCNC(=N)N)NC(=O)[C@H](CCC(N)=O)NC(=O)[C@@H](NC(=O)[C@H](C)NC(=O)[C@@H]1CSSC[C@H](NC(=O)[C@@H](N)CCCCNC(=O)CC[C@H](NC(=O)CC[C@H](NC(=O)CCCCCCCCCCCCCCCCCCC(=O)O)C(=O)O)C(=O)O)C(=O)N[C@@H](CC(N)=O)C(=O)N[C@@H]([C@@H](C)O)C(=O)N[C@@H](C)C(=O)N[C@@H]([C@@H](C)O)C(=O)N1)[C@@H](C)O)C(=O)N1CCC[C@H]1C(=O)N[C@@H](CO)C(=O)N[C@@H](CO)C(=O)N[C@H](C(=O)N[C@@H](CC(N)=O)C(=O)N[C@H](C(=O)NCC(=O)N1CCC[C@H]1C(=O)N[C@@H](CCC(=O)O)C(=O)N[C@H](C(=O)N[C@@H](Cc1ccc(O)cc1)C(N)=O)[C@@H](C)O)C(C)C)[C@@H](C)O
B4: N{Alpha-1}-[(4S)-4-carboxy-4-(19-carboxynonadecanoylamino)butanoyl]-[Glu14,Arg17,Pro21,Pro27,Lys34]-h-amylin (peptide)
peptide: {C20 diacid-γGlu}-KCNTATCATQRLAEFLRHSSPNFGAIPSSTNVGKNTY-NH2
modifications: disulfide 2-7
SMILES: CC[C@H](C)[C@H](NC(=O)[C@H](C)NC(=O)CNC(=O)[C@H](Cc1ccccc1)NC(=O)[C@H](CC(N)=O)NC(=O)[C@@H]1CCCN1C(=O)[C@H](CO)NC(=O)[C@H](CO)NC(=O)[C@H](Cc1c[nH]cn1)NC(=O)[C@H](CCCNC(=N)N)NC(=O)[C@H](CC(C)C)NC(=O)[C@H](Cc1ccccc1)NC(=O)[C@H](CCC(=O)O)NC(=O)[C@H](C)NC(=O)[C@H](CC(C)C)NC(=O)[C@H](CCCNC(=N)N)NC(=O)[C@H](CCC(N)=O)NC(=O)[C@@H](NC(=O)[C@H](C)NC(=O)[C@@H]1CSSC[C@H](NC(=O)[C@H](CCCCN)NC(=O)CC[C@H](NC(=O)CCCCCCCCCCCCCCCCCCC(=O)O)C(=O)O)C(=O)N[C@@H](CC(N)=O)C(=O)N[C@@H]([C@@H](C)O)C(=O)N[C@@H](C)C(=O)N[C@@H]([C@@H](C)O)C(=O)N1)[C@@H](C)O)C(=O)N1CCC[C@H]1C(=O)N[C@@H](CO)C(=O)N[C@@H](CO)C(=O)N[C@H](C(=O)N[C@@H](CC(N)=O)C(=O)N[C@H](C(=O)NCC(=O)N[C@@H](CCCCN)C(=O)N[C@@H](CC(N)=O)C(=O)N[C@H](C(=O)N[C@@H](Cc1ccc(O)cc1)C(N)=O)[C@@H](C)O)C(C)C)[C@@H](C)O
notes: also called compound 36
B5: N^-1-[(4S)-4-carboxy-4-(19-carboxynonadecanoylamino)butanoyl]-Gly[Arg1,Arg17,Pro21,Pro27]-h-amylin (peptide)
peptide: {C20 diacid-γGlu}-GRCNTATCATQRLANFLRHSSPNFGAIPSSTNVGSNTY-NH2
modifications: disulfide 3-8
SMILES: CC[C@H](C)[C@H](NC(=O)[C@H](C)NC(=O)CNC(=O)[C@H](Cc1ccccc1)NC(=O)[C@H](CC(N)=O)NC(=O)[C@@H]1CCCN1C(=O)[C@H](CO)NC(=O)[C@H](CO)NC(=O)[C@H](Cc1c[nH]cn1)NC(=O)[C@H](CCCNC(=N)N)NC(=O)[C@H](CC(C)C)NC(=O)[C@H](Cc1ccccc1)NC(=O)[C@H](CC(N)=O)NC(=O)[C@H](C)NC(=O)[C@H](CC(C)C)NC(=O)[C@H](CCCNC(=N)N)NC(=O)[C@H](CCC(N)=O)NC(=O)[C@@H](NC(=O)[C@H](C)NC(=O)[C@@H]1CSSC[C@H](NC(=O)[C@H](CCCNC(=N)N)NC(=O)CNC(=O)CC[C@H](NC(=O)CCCCCCCCCCCCCCCCCCC(=O)O)C(=O)O)C(=O)N[C@@H](CC(N)=O)C(=O)N[C@@H]([C@@H](C)O)C(=O)N[C@@H](C)C(=O)N[C@@H]([C@@H](C)O)C(=O)N1)[C@@H](C)O)C(=O)N1CCC[C@H]1C(=O)N[C@@H](CO)C(=O)N[C@@H](CO)C(=O)N[C@H](C(=O)N[C@@H](CC(N)=O)C(=O)N[C@H](C(=O)NCC(=O)N[C@@H](CO)C(=O)N[C@@H](CC(N)=O)C(=O)N[C@H](C(=O)N[C@@H](Cc1ccc(O)cc1)C(N)=O)[C@@H](C)O)C(C)C)[C@@H](C)O
notes: also called compound 46
B6: N^-1-[(4S)-4-carboxy-4-(19-carboxynonadecanoylamino)butanoyl]-Gly[Arg1,Ala14,Arg17,Pro21,Pro27,His34]-h-amylin (peptide)
peptide: {C20 diacid-γGlu}-GRCNTATCATQRLAAFLRHSSPNFGAIPSSTNVGHNTY-NH2
modifications: disulfide 3-8
SMILES: CC[C@H](C)[C@H](NC(=O)[C@H](C)NC(=O)CNC(=O)[C@H](Cc1ccccc1)NC(=O)[C@H](CC(N)=O)NC(=O)[C@@H]1CCCN1C(=O)[C@H](CO)NC(=O)[C@H](CO)NC(=O)[C@H](Cc1c[nH]cn1)NC(=O)[C@H](CCCNC(=N)N)NC(=O)[C@H](CC(C)C)NC(=O)[C@H](Cc1ccccc1)NC(=O)[C@H](C)NC(=O)[C@H](C)NC(=O)[C@H](CC(C)C)NC(=O)[C@H](CCCNC(=N)N)NC(=O)[C@H](CCC(N)=O)NC(=O)[C@@H](NC(=O)[C@H](C)NC(=O)[C@@H]1CSSC[C@H](NC(=O)[C@H](CCCNC(=N)N)NC(=O)CNC(=O)CC[C@H](NC(=O)CCCCCCCCCCCCCCCCCCC(=O)O)C(=O)O)C(=O)N[C@@H](CC(N)=O)C(=O)N[C@@H]([C@@H](C)O)C(=O)N[C@@H](C)C(=O)N[C@@H]([C@@H](C)O)C(=O)N1)[C@@H](C)O)C(=O)N1CCC[C@H]1C(=O)N[C@@H](CO)C(=O)N[C@@H](CO)C(=O)N[C@H](C(=O)N[C@@H](CC(N)=O)C(=O)N[C@H](C(=O)NCC(=O)N[C@@H](Cc1c[nH]cn1)C(=O)N[C@@H](CC(N)=O)C(=O)N[C@H](C(=O)N[C@@H](Cc1ccc(O)cc1)C(N)=O)[C@@H](C)O)C(C)C)[C@@H](C)O
B7: N^-1-[(4S)-4-carboxy-4-(19-carboxynonadecanoylamino)butanoyl]-Gly[Arg1,Ala14,Arg17,Pro21,Pro27,Pro34]-h-amylin (peptide)
peptide: {C20 diacid-γGlu}-GRCNTATCATQRLAAFLRHSSPNFGAIPSSTNVGPNTY-NH2
modifications: disulfide 3-8

The target of the assay is T1, human amylin receptor. As to the kind of experiment: SPA competition vs 125I-rat amylin, membranes of amylin 3(a) receptor BHK cells (Assay V). The procedure, abridged:
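Cell membranes were prepared by homogenisation in Na-HEPES/EDTA buffer, pH 7.4, and stored at −80° C. They were then coupled to SPA beads at 35 ng/μL final and exposed to compounds in assay buffer containing CaCl2, MgCl₂, OA and Tween20. After 120 min at 25° C, plates were counted and IC₅₀ derived.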
With B1, the 50% inhibitory concentration (IC50) worked out at 0.076 nM.

The molecule B2 came in with an IC50 of 0.427 nM.

The molecule B3 yielded an IC50 of 0.121 nM.

Molecule B4 returned an IC50 of 0.403 nM.

In turn, B5 came in with an IC50 of 0.195 nM.

Consider B6, for which the IC50 worked out at 0.426 nM.

Molecule B7 had an IC50 of 0.114 nM. This IC50 is about 3.7-fold lower than that of the molecule before.
